Results taken from the DeepSol protein solubility set.

Assay: soluble on expression in E. coli; label from the status in PepcDB or PDB records

Soluble on expression in E. coli, not soluble:
MGSDKIHHHHHHMLKFGTAGIPINAKNTESALEYLKEIKLDAMELEFVRGVNLKAEKAESLAKNLKITLSAHAPYYINLNAKEPEKIESSIKRIVDSAKIISIFNKKNSENKNVVFHSGFYLKQDKDLVYEKIKVNIQKILKIMDENKINAILRPETTGKISQFGSIDELIQLSTEIDIMPCIDFSHVYARSLGKINDYDSFSNILSKLENNLGKKGIKDMHIHISGIDFGNGGEKKHFPILNSEFNYMAVLKALKDFECSGTVICESPKLEYDAVILKKNYEEL
MGSDKIHHHHHHMLKNIPIPSPLSPVEGILIKRKTLERYFSIERLEQQAHQRAKRILREAEEEAKTLRMYAYQEGYEQGMIDALQQVAAYLTDNQTMAWKWMEKIQIYARELFSAAVDHPETLLTVLDEWLRDFDKPEGQLFLTLPVNAKKDHQKLMVLLMENWPGTFNLKYHQEQRFIMSCGDQIAEFSPEQFVETAVGVIKHHLDELPQDCRTISDNAINALIDEWKTKTQAEVIR
MGSDKIHHHHHHMLNDFVDRCVWAADLSAEQRDRVRRAMFVREYTQGDYVCHKGEIAEHWLGVLEGIVKITTVSPSGKSVTFTGVPTGGWFGEGAVLKSEIRKYDVMALRRSTIAFLPRDTFQWLLDTSLPFTRFLLTQFNERLGQFIAAVEYERLLDIDSRVARAVSSLFNEHLYPGIGNTLEISQEEIGLLAGISRQRANQALKVLEQQGLVRVDYGVIEVLDLEGLRQYGE
MGSDKIHHHHHHMLNIDGSKYIVNNNLKNYLDNIKKPWGILFYRVLWQQLDKIKTSKVLDFGSGFGITANHFASNNMVIAIEPNSELVEARIQENDYIQIVGDLKALKSQKDNYFDVILCHNVFEYAKEREEIFKEFLRILKPGGIISLVKHNHAGRIMQKVVFENNIDEAEKLLNGGIIEVLGFGKVSYYKLEDIKKWCKGFEVEIIKVLGIRTFWALQQDNKIKEDPIWQEKMFKIEMMVSNIDEYVNISFFNHIILKKALKNYALE
MGSDKIHHHHHHMLNSIMEDKKELLKSLLRQIHEGRDVSELKEQFKDVLASISPLEIPLIEQELVKEGISTREIAKMCDIHVELFRESVEGAFSVEDIPEGHPLHTLFMENREIVKDAEMLALLANTLEREMKGEILEEMESVVAELIKVGHTHYNREEMLIFPYIERRGITAIPNVLWFKHDEIRAALRVLHRLLTTDTGERWEEHIKRVVEKAREVSSAMLDMVFRENNIFYPTLKVLLSEGEWRAIREQEEIIGYYKLKPAEWKSDAKPVHPYEIDTTITAEQLISLPEEVQNLLKGQLLKPDSYEVVREDDLRLDEGYLSQREINAIFKALPFDITFVDSNDRVRFFSGSDRIFARTPSVIGRRVHLCHPPRSVHIVDKILKAFRNGERDFAEFWINMGGRIIHIRYFAVRDEGEYLGTVEVVQDVTEIKRLEGEKRLLGWK
MGSDKIHHHHHHMLPLEGLTVIAVEQAVAAPYCSSRLADAGAHVIKIERPEGDFARGYDAAAKGQSSYFVWLNRGKESAVVDLATKEGRAELEKLIASADVLLQNLKPGSMDKLGFARERLRKDYPKLIICTISGYGDEGPYAHRKAYDLLIQAESGLASITGGPESASRVGMSIVDVATGATAHAAILEALIGRGRTGQGADIRISMFDVMADWLTVPLLNAEAGNPPKRLGLAHPSIAPYGVFTSKDGKDILISIQSEREWKKLCSDVLRQPDLPNDPRLCNGVERVKNRAYTDKIVADIFGSLTRDDLLEHLAAADIAFAEVNAMEDLSHHPHLRRIEVDTPNGKVSYPAPAAIFVGDERRYGAVPGIGDKRK
MGSDKIHHHHHHMLRDLVYPPGCATCGLPVAKAGSLCSDCWCSVRFIERPYCEILGLPFGFDPGQGMVCAEAIANPPVFDRLRAAVVHDGAARDLVHRLKYGDRTDLAPMMAHWMIRAGGQELLRADAILPVPLHRWRLFSRQYNQSAELGRALAGLSDKPFLPGVLTRVKRTQKQVGLTEKARADNVRGAFKVAENRRDQVFGRHLVLVDDVYTTGATVSAATRALKRAGAVEVTVLTFAMALVTPI
MGSDKIHHHHHHMLRPHHSDNEQITLRSLLQSYRDQTTSNVVWGKIFEDFVTKYLMHDPLHYGRYEKVESYYEWAKERKDWNKNDIGIDLVAKLRHQESYVAIQCKFYKADHQISKKDIDSFIAESGKKIFKYRLLVDSTEVELSDNVNAMIKGQAIPIYRIDLRHMENSRIDWQTYATKKEVVLKSIKKPLPHQEPTMRPRAWIKAFSALAVASFK
MGSDKIHHHHHHMLRRIKAEQLQVGMFVARLGGPWHARAFRRSRFLVTSEEQVGEIRSSGVDEVWIDILKGRNAPTPQAATSPWETPEPAPALATANSLPAEFGLARELLQSGKSVIGSMFADVRMGRALEVSGALLLVDSASQSLSRHSQALIALARLKARDDYSYMHAFAVCALMVAVGRTMELPPEEVRDLGLAGLLHDIGKLTLPEAVLHKPTSRRPGEDEEIKRHPSAGYRILNEARLNANIVLDVCVHHHERVDGRGYPFGLVGRELSVHARIAAICDTYDSLTSSRPGHQQWSPARAMEYMAVRVDTLFDSRVFKAFTRTVGIYPLGTVLRLRSNRLAVVCAQHESEPLRPRVMAFYSVSASSALTPEVIDLSTSDDTVVAFEDPADWGYTDEQLLAIYAGQGQAGAAQAAAMAMPAA
MGSDKIHHHHHHMLSAMYLIDAFFSRQNNQFHLEQQSHCVNQIIEQWRYNGQIIGREIPQFVAEQKNQQGLAVRVTCPEQTSLLAEFNNQPVNDALQTAEKCGVSFESFHIVAEDLNSEITATETPAWQLLYTTYLQSCSPLQSGESLQPIPLYKQLKNIPHLAMDLVKWQENWQACDQLQMNGSVLEQQALVQISDTQSTLFKHGYHLTQEIERHSGIPTYYYLYRIGGKSCEAELQSRCPLCKRKWTLSHPLFDFLYFKCDHCRLVSNLSWHWQ
MGSDKIHHHHHHMLTLANVALLSQLALQQPGETDKKPEDCSFEQIEFTINFAVGRLNHCEKTGDNQYKLFLEPEREKINPSPWYAFAVKNKTETSQTIDITLVASEGVSRYKPKRSEGDDIWHAIPFSEGDGTLQFELTLSGQTKEYIAGQEIIDNVHYIEWLSSLIKEPQQTEVISLGVSSEGRNLAALEHRVESSDKWIILIGRQHPPEVTGALALLHFGELLFSDEPYVVKFRQKYNILLVPNMNPDGVYHGNWRLTAAGIDMNRDWKNLTLPETQAMANYLKKLVKDGGKIEFAIDFHSTRKNVFYTMPEDYEPRSGVPLRNPQRVYNWIEEIEELVGSVELDYQPGAHPESGVFKQFIADEFAAHAVTYEVSDNEERNNIKKVAEAALISLINRLD
MGSDKIHHHHHHMLVTELNIYPLKSARGIALKESAVSAEGLPGDRRAMLTDPSGHFITQRELPAIATVLARHEDGGMALSRERSGEIFARPSGQRMDVAVWKSIVSANIADDETNDTLSAWLGREVKLVFFDDAAKRIASLEWTGNETPVTFADGYQILVTTTASLAALNDNMRGNGEDAVGMERFRPNIVLETEEAWAEDRWAAIEIGGIRFDLVKPCARCIMTTQDQMTGSRDVPSPMKAMGRIRMSGDRRVPGPLFGWNVTPRGEGRLSVGDVARVVEERPEGWAIKRR
MGSDKIHHHHHHMLYADENSFDIGAKITKTKPVLLPIGAVEAHGPHLPLGTDNILASEYSAKIAAETSGFVLPVLPYGQVWSLQDFPGSLTLSNETVTKVVVEIGESLYKQGFRLFVPVSGHLGNMAALKDAARELYAKYPDMVILHIFYPNIQKLAMDVREGNANHHTYIHACEIETSLMLYLSPENADMSRAIDDPPILPIDADFTPTPWQNFTKTAVLGEATLATAEKGEYLIEKTLKTCVELIKLEQEKIRKSTEME
MGSDKIHHHHHHMMAQFEYSTLAHPQDIQQLEHILEQCFISALGGEEAYINMIGVENFRIIRRLEQVAGGLATLDMGQWWGGQRVPMTGIAVVGIAPEYRGSGAAIALMQHTLKELYDRGIAISALYPAVQSLYRKVGYEQGGSWCIWEIATQNIQVREQPLPLELVASINHEVFHELYQQQARQTHGYLDRHPAIWERIIQPNDKEIVYTYLIGTKDQPQGYIIFTQERTNNGEILFVKDWVLTTVAAAQTFWSFLASHRSQIQQVRWKSSAIDSLTLLLPEQTAKIQTTSRWLLRIIDVVKALELRGYPPGIQAELHLEIQDNLLTENNGKFILSVANGRGEVTKGGKGELQLDIRELAPLYTSLFTPYHLQIAGKLNGTETAILTATQIFAGASPWMADFF
